Measured values: the Immune Epitope Database (IEDB)

What was measured:
HLA-A*02:01 [1] = test: IEDB peptide-MHC binding, cellular MHC/competitive/fluorescence; ≥ and ≤ were set here for values at or beyond the usual limits of such assays; conditions: source organism: Homo sapiens
HLA-B*83:01 = test: IEDB peptide-MHC binding, purified MHC/competitive/fluorescence; filed as Kd, often an IC50 or EC50 that approximates it; ≥ and ≤ were set here for values at or beyond the usual limits of such assays; conditions: source organism: Mycobacterium tuberculosis C
HLA-C*14:02 = test: as above; conditions: source organism: Mycobacterium tuberculosis C
HLA-A*03:19 = test: as above; conditions: source organism: Mycobacterium tuberculosis C
HLA-A*32:15 = test: as above; conditions: source organism: Mycobacterium tuberculosis C
HLA-C*06:02 = test: as above; conditions: source organism: Mycobacterium tuberculosis C
HLA-B*45:06 = test: as above; conditions: source organism: Mycobacterium tuberculosis C
HLA-B*15:42 = test: as above; conditions: source organism: Mycobacterium tuberculosis C
HLA-B*18:01 = test: as above; conditions: source organism: Orthomarburgvirus marburgense
HLA-A*26:02 = test: as above; conditions: source organism: Orthomarburgvirus marburgense
HLA-A*02:01 [2] = test: as above; conditions: source organism: Orthomarburgvirus marburgense
HLA-B*73:01 = test: IEDB peptide-MHC binding, purified MHC/direct/fluorescence; filed as Kd, often an IC50 or EC50 that approximates it; ≥ and ≤ were set here for values at or beyond the usual limits of such assays; conditions: source organism: Marburg virus - Musoke, Kenya, 1980
HLA-B*15:09 = test: as above; conditions: source organism: Orthomarburgvirus marburgense
HLA-B*07:02 = test: as above; conditions: source organism: Marburg virus - Musoke, Kenya, 1980
HLA-A*31:01 = test: as above; conditions: source organism: Marburg virus - Musoke, Kenya, 1980
HLA-A*69:01 = test: as above; conditions: source organism: Marburg virus - Musoke, Kenya, 1980
HLA-B*08:02 = test: as above; conditions: source organism: Orthomarburgvirus marburgense
HLA-B*15:17 = test: as above; conditions: source organism: Marburg virus - Musoke, Kenya, 1980
HLA-B*27:05 = test: as above; conditions: source organism: Marburg virus - Musoke, Kenya, 1980
HLA-B*48:01 = test: as above; conditions: source organism: Marburg virus - Musoke, Kenya, 1980
HLA-A*01:01 = test: as above; conditions: source organism: Marburg virus - Musoke, Kenya, 1980
HLA-A*11:01 = test: as above; conditions: source organism: Marburg virus - Musoke, Kenya, 1980
HLA-B*15:01 = test: as above; conditions: source organism: Marburg virus - Musoke, Kenya, 1980
HLA-B*58:01 = test: as above; conditions: source organism: Marburg virus - Musoke, Kenya, 1980
HLA-A*68:02 = test: as above; conditions: source organism: Marburg virus - Musoke, Kenya, 1980
HLA-B*57:01 = test: as above; conditions: source organism: Marburg virus - Musoke, Kenya, 1980
HLA-B*27:04 = test: IEDB peptide-MHC binding, cellular MHC/competitive/fluorescence; ≥ and ≤ were set here for values at or beyond the usual limits of such assays; conditions: source organism: Human herpesvirus 4 strain B95-8
HLA-A*32:07 = test: IEDB peptide-MHC binding, purified MHC/competitive/fluorescence; filed as Kd, often an IC50 or EC50 that approximates it; ≥ and ≤ were set here for values at or beyond the usual limits of such assays; conditions: source organism: Mycobacterium tuberculosis C
HLA-B*27:20 = test: as above; conditions: source organism: Mycobacterium tuberculosis C
HLA-C*07:02 = test: IEDB peptide-MHC binding, purified MHC/direct/fluorescence; filed as Kd, often an IC50 or EC50 that approximates it; ≥ and ≤ were set here for values at or beyond the usual limits of such assays; conditions: source organism: Mycobacterium tuberculosis C

How did the IC50 (HLA-A*02:01 [1]) turn out when ALVVQVAEA was run?
The IC50 was 2580 nM.

Which Kd (HLA-B*83:01) does the source give for MVRQMRAAL here?
The Kd was 99.1 nM.

What about the Kd (HLA-C*14:02) of the same sequence?
The Kd was 33.5 nM.

And the Kd (HLA-A*03:19)?
The Kd was 590 nM.

And the Kd (HLA-A*32:15)?
The Kd was 356 nM.

What about the Kd (HLA-C*06:02) of the same sequence?
The Kd was 526 nM.

What about the Kd (HLA-B*45:06) of the same sequence?
Its Kd is at least 5000 nM.

And the Kd (HLA-B*15:42)?
Its Kd is at least 5000 nM.

For NRWKSWFSY, which Kd (HLA-B*18:01) is on record?
Its Kd is at least 20000 nM.

And the Kd (HLA-A*26:02)?
Its Kd is at least 20000 nM.

What about the Kd (HLA-A*02:01 [2]) of the same sequence?
Its Kd is 2540 nM.

What about the Kd (HLA-B*73:01) of the same sequence?
The Kd was 9.8 nM.

What about the Kd (HLA-B*15:09) of the same sequence?
Its Kd is at least 20000 nM.

And the Kd (HLA-B*07:02)?
The Kd was at least 20000 nM.

What about the Kd (HLA-A*31:01) of the same sequence?
Its Kd is at least 20000 nM.

And the Kd (HLA-A*69:01)?
Its Kd is at least 20000 nM.

What about the Kd (HLA-B*08:02) of the same sequence?
Its Kd is at least 20000 nM.

And the Kd (HLA-B*15:17)?
Its Kd is at least 20000 nM.

What about the Kd (HLA-B*27:05) of the same sequence?
The Kd was 86.4 nM.

What about the Kd (HLA-B*48:01) of the same sequence?
Its Kd is at least 20000 nM.

What about the Kd (HLA-A*01:01) of the same sequence?
Its Kd is at least 20000 nM.

And the Kd (HLA-A*11:01)?
Its Kd is at least 20000 nM.

What about the Kd (HLA-B*15:01) of the same sequence?
Its Kd is at least 20000 nM.

And the Kd (HLA-B*58:01)?
The Kd was at least 20000 nM.

And the Kd (HLA-A*68:02)?
Its Kd is at least 20000 nM.

What about the Kd (HLA-B*57:01) of the same sequence?
Its Kd is at least 20000 nM.

QRSYVSGVL was tested. Which IC50 (HLA-B*27:04) did it give?
The IC50 was 5000 nM.

What does the source list for RARRHLAAL?
Kd (HLA-B*83:01): 5000 nM; Kd (HLA-A*32:07): 114 nM; Kd (HLA-B*45:06): ≥ 5000 nM; Kd (HLA-B*27:20): 7.4 nM; Kd (HLA-B*15:42): ≥ 5000 nM; Kd (HLA-C*07:02): 1340 nM
